Results reported in patent publication US11155602B2, “Polypeptides targeting HIV fusion” (priority 2015, dated 2021).
Where a chain is given by its changes, count along the chain named.

B1: 119 (protein)
chain: MGVSDVPRDLEVVAATPTSLLISWDAPAVTVGWYHIGYNVEGEPASYQYFRVPGSKSTATISGLKPGVEYMIFVNAVTGSGAREEFSLPISINYRTEGSGSHHHHHH
modifications: Adnectin
B2: 120 (protein)
chain: MGHHHHHHGGVSDVPRDLEVVAATPTSLLISWEYNVNPYRYYRITYGETGGNSPVQEFTVPSVLSSAQISGLKPGVDYTITVYAVTRGVDSAPISINYRTPGG
modifications: Adnectin
B3: 153 (protein)
chain: MGHHHHHHGGSVSDVPRDLEVVAATPTSLLISWEYKVHPYRYYRITYGETGGNSPVQEFTVPSVLSTAQISGLKPGVDYTITVYAVTYGDDSAPISINYRTEID
modifications: Adnectin
B4: 177 (protein)
chain: B3 chain with Q69T, N98P, E102P, I103G, D104G
modifications: Adnectin
B5: 173 (protein)
chain: B3 chain with S11A, H38N, Y40W, Q69T, D90V, D91H, A93S
modifications: Adnectin
B6: 179 (protein)
chain: B3 chain with Q69T, A93R
modifications: Adnectin
B7: 169 (protein)
chain: B3 chain with K36N, H38N, Q69T, Y88R, D90V
modifications: Adnectin
B8: 159 (protein)
chain: B3 chain with Q69T, N98P, E102P, I103G, D104G
modifications: Adnectin
B9: 162 (protein)
chain: B3 chain with T67S
modifications: Adnectin
B10: 165 (protein)
chain: B3 chain with H38N, Q69T, D90V, D91H, A93S
modifications: Adnectin
B11: 174 (protein)
chain: B3 chain with K36N, H38N, P39A, Q69T, D90I, D91I, A93E
modifications: Adnectin
B12: 183 (protein)
chain: B3 chain with Q69T, D90I
modifications: Adnectin
B13: 182 (protein)
chain: B3 chain with Q69T, D91Q
modifications: Adnectin
B14: 181 (protein)
chain: B3 chain with Q69T, D91H
modifications: Adnectin
B15: 180 (protein)
chain: B3 chain with Q69T, D90K
modifications: Adnectin
B16: 175 (protein)
chain: B3 chain with P39Y, Y40D, Q69T, D90V, D91Q, A93T
modifications: Adnectin
B17: 161 (protein)
chain: B3 chain with T67S, Q69E
modifications: Adnectin
B18: 171 (protein)
chain: B3 chain with E34K, K36Q, P39A, Q69T, D90I, D91I, A93E
modifications: Adnectin
B19: 166 (protein)
chain: B3 chain with E34K, K36N, V37L, Q69T, D90I, D91I, A93E
modifications: Adnectin
B20: 167 (protein)
chain: B3 chain with K36R, H38N, Q69T, D90V, D91Q, A93P
modifications: Adnectin
B21: 163 (protein)
chain: B3 chain with D18Y, E34Q, Y42W, Q69T, D90V, D91N, A93I
modifications: Adnectin
B22: 172 (protein)
chain: B3 chain with H38D, Q69T, D90I, A93S
modifications: Adnectin
B23: 170 (protein)
chain: B3 chain with H38S, Q69T, Y88F, D90I, D91R, A93S
modifications: Adnectin
B24: 168 (protein)
chain: B3 chain with H38N, P39A, Q69T, D90V, D91L, A93P
modifications: Adnectin
B25: 176 (protein)
chain: B3 chain with P39H, Y40D, Q69T, D90I, D91E, A93S
modifications: Adnectin
B26: 164 (protein)
chain: B3 chain with E34K, K36Q, P39A, Q69T, D90V, D91Y
modifications: Adnectin
B27: 151 (protein)
chain: MGVSDVPRDLEVVAATPTSLLISWEYKVHPYRYYRITYGETGGNSPVQEFTVPSVLSTATISGLKPGVDYTITVYAVTYGIDSSPISINYRTEIDKPSQHHHHHH
modifications: Adnectin
B28: 155 (protein)
chain: B27 chain with E25Q, Y79H, I81V, D82H, S84A
modifications: Adnectin
B29: 156 (protein)
chain: B27 chain with H29N, Y31W, D82E
modifications: Adnectin
B30: 157 (protein)
chain: B27 chain with E25Q, I81V, D82N, S84I
modifications: Adnectin
B31: 154 (protein)
chain: B27 chain with K27N, H29N, I81V, D82N, S84L
modifications: Adnectin
B32: 158 (protein)
chain: B27 chain with P30Y, Y31D, D82Q, S84P
modifications: Adnectin
B33: 152 (protein)
chain: B27 chain with K27N, H29N, I81V, D82Q, S84D
modifications: Adnectin
B34: 118 (protein)
chain: B27 chain with E25K, I81V, D82N, S84L
modifications: Adnectin
B35: 160 (protein)
chain: B27 chain with H29D, I81V, D82E
modifications: Adnectin

What follows are molecules tested on NL-Rluc virus (assay: Combinectin potency assay: antiviral EC50, NL-Rluc virus in MT-2 cells, luciferase readout). Details: Anti-N17 Adnectin, Table 3.
Assay type: cell-based, HIV-1
Experimental: MT-2 cells, HEK 293T cells and the proviral DNA clone of […] were obtained from the NIH AIDS Research and Reference Reagent Program. MT-2 cells were propagated in RPMI 1640 medium supplemented with 10% heat-inactivated fetal bovine serum (FBS), 10 mM HEPES buffer pH 7.55, and 2 mM L-glutamine. HEK 293T cells were propagated in DMEM media supplemented with 10% heat-inactivated FBS, 10 mM HEPES buffer pH 7.55 and 2 mM L-glutamine. Recombinant NL-Rluc virus, in which a section of the nef gene from the proviral clone of NL4-3 was replaced with the Renilla luciferase gene, was constructed at Bristol-Myers Squibb. The replication-competent virus was harvested 3 days after transfection of HEK 293T cells with the modified pNL-Rluc proviral clone. Transfections were performed using Lipofectamine Plus (Invitrogen, Carlsbad, Calif.), according to manufacturer's instruction. Virus was titered in MT-2 cells using luciferase enzyme activity as a biomarker. The NL-Rluc virus used to infect MT-2 cells a multiplicity of 0.01 for 1 hour before adding to the peptides in 96-well plates. Peptides were serially diluted three-fold and 11 concentrations were plated in triplicate. After 4-5 days of incubation, cells were processed and quantitated for virus growth by the amount of expressed luciferase. Luciferase was quantitated using the Dual Luciferase kit from Promega (Madison, Wis.), with modifications to the manufacturer's protocol. The diluted Passive Lysis solution was pre-mixed with the re-suspended Luciferase Assay Reagent and then re-suspended in STOP & GLO® Substrate (2:1:1 ratio). A total of […] of the mixture was added to each aspirated well on assay plates and luciferase activity was measured immediately on a Wallac TriLux (Perkin-Elmer, Waltham, Mass.). The 50% effective concentration (EC50) was calculated by comparing the amount of luciferase produced in the presence of inhibitory peptide compared to wells where no peptide was added.
B1 gave an EC50 greater than 1000 nM. In the case of B2, the EC50 is reported as 39 nM. Molecule B3 has an EC50 of 8 nM. In the case of B4, the EC50 is reported as 252 nM. With B5 the EC50 was 5 nM. In the case of B6, the EC50 is reported as greater than 1000 nM. Work on B7 yielded an EC50 of 5 nM. B8 gave an EC50 of 23 nM. Molecule B9 has an EC50 of 35 nM. Molecule B10 has an EC50 of 42 nM. For B11, the EC50 was 5 nM. Work on B12 yielded an EC50 of 20 nM. Work on B13 yielded an EC50 greater than 1000 nM. B14 showed an EC50 of 631 nM. For B15, the EC50 was greater than 1000 nM. B16 gave an EC50 of 5 nM. Molecule B17 has an EC50 of 13 nM. Molecule B18 has an EC50 of 35 nM. In the case of B19, the EC50 is reported as 50 nM. B20 was tested, and the EC50 was 42 nM. For B21, the EC50 was 35 nM. With B22 the EC50 was 5 nM. In the case of B23, the EC50 is reported as 5 nM. Molecule B24 has an EC50 of 42 nM. Work on B25 yielded an EC50 greater than 1000 nM. B26 was tested, and the EC50 was 35 nM. Work on B27 yielded an EC50 of 11 nM. With B28 the EC50 was 9 nM. B29 gave an EC50 of 43 nM. Molecule B30 has an EC50 of 43 nM. B31 was tested, and the EC50 was 8 nM. B32 showed an EC50 of 85 nM. Work on B33 yielded an EC50 of 20 nM. In the case of B34, the EC50 is reported as 28 nM. For B35, the EC50 was 58 nM.
